The values that follow come from patent publication US20160046713A1 (INNATE PHARMA, published 2016).

The target in experiment [1] is T1, human KIR3DL1 (CD158e1) on cells (human, UniProt P43629 22-444).
T1 construct: Present on donor NK and T cells
Kind of experiment: two colour immunofluorescence on polyclonal NK cell populations and clones. The source says:
mAbs were generated by immunizing 5 week old Balb C mice with polyclonal IL-2 activated NK population. […] The reactivity of AZ158 was further analyzed on NK cell populations and clones in combination with additional antibodies, including EB6 ([…], CD158a), GL183 (anti-p58.2/50.2, CD158b), PAX180 (anti-p50.3) and FES172 (anti-p50.3), as well as Z27 and Q66, and it was observed that AZ158 reacted with the same cell subset stained by the anti-KIR3DL1 and anti-KIR3DL2 mAbs. Similar results were also observed using a panel of NK cell clones expressing different HLA class I specific NK receptors.

Experiment [2] addresses T2, human KIR3DS1 (CD158e2) on cells (human, UniProt P43629 22-381).
T2 construct: Present on donor NK and T cells
Put plainly: flow cytometry with AZ158-PE on healthy donor PBMC gated on CD3+ T lymphocytes.

In experiment [3] the target is T3, KIR3DL1 recombinant protein (R&D systems) (Homo sapiens (Human), UniProt P43629 22-340).
T3 construct: Bought protein; also called KIR3DL1 chip; immobilized KIR3DL1
T3 sequence (P43629 22-340 limits assumed): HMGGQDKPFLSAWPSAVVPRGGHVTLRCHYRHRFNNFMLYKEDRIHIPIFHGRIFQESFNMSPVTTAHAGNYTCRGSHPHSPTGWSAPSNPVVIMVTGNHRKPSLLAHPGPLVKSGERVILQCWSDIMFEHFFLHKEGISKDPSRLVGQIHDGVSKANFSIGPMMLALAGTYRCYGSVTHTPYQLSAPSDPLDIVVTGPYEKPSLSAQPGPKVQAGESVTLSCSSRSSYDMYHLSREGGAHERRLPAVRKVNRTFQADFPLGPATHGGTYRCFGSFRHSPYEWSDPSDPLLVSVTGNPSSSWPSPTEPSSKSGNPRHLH
Kind of experiment: SPR (Biacore T100), receptor immobilized on chip, antibody injected at 12 µg/ml. The method, then:
The binding of chimeric AZ158 (“chAZ158”, see Example 3) to KIR3DL2 and KIR3DL1 recombinant proteins (R&D systems) was analyzed by Surface Plasmon Resonance (SPR) using a Biacore T100 apparatus. […] Antibody was injected at a constant concentration of 12 μg/ml over the KIR3DL2 and KIR3DL1 flow-cells. Background signals were subtracted online by co-injecting onto the reference flow cell (dextran alone). Sensorgrams are representative of three independent experiments.

Experiment [4] has as its target T4, KIR3DL2 domain 1 construct (V5-tagged, CD24-GPI anchored) on HEK-293T/17 cells (human, UniProt P43630 139-238).
T4 construct: also called pcDNA3.1/KIR3DL2 domain 1; KIR3DL2 extracellular domain 1
T4 sequence: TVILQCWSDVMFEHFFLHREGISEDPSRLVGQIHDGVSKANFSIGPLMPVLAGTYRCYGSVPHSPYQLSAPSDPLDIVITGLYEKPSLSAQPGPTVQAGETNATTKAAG
Kind of experiment: flow cytometry on transfected HEK-293T/17 cells, goat anti-human-PE detection. Here is the method: (§1) Transfections were performed using 5 μg of the different pcDNA3.1/KIR3DL2 domain 0, pcDNA3.1/KIR3DL2 domain 1 or pcDNA3.1/KIR3DL2 domain 2 constructs using Lipofectamine 2000 according to manufacturer instructions. To ensure DNA purity for transfection, Maxi-prep endotoxin free kit from Qiagen was used. The Lipofectamine/DNA ratio used was fixed at 2/1. Cells were harvested 48 hours after transfection for flow cytometry experiments.
(§2) Cells were harvested and stained in PBS 1×/BSA 0.2%/EDTA 2 mM buffer during 1H at 4° C. using 5 μg/ml of chiAZ158 antibody. After two washes in staining buffer, cells were stained for 30 min at 4° C. with anti-V5 antibody FITC (0.1 μl per well) and goat anti-human (H+L)-PE antibodies (1/200). After two washes, stainings were acquired on a BD FACS Canto II and analyzed using the FlowJo software.
(§3) Results are shown in FIGS. 7-10, with V5-FITC indicated on the y-axis and chAZ158-GAH-PE on the x-axis. […] No binding of the chiAZ158 antibody could be detected on KIR3DL2 domain 1 (FIG. 9) or domain 2 (FIG. 10). Therefore, it can be concluded from this flow cytometry experiment that the chAZ158 antibody binds to the KIR3DL2 extracellular domain 0 but not to domains 1 and 2.

The target in experiment [5] is T5, KIR3DL2 domain 2 construct (V5-tagged, CD24-GPI anchored) on HEK-293T/17 cells (human, UniProt P43630 239-340).
T5 construct: also called pcDNA3.1/KIR3DL2 domain 2; KIR3DL2 extracellular domain 2
T5 sequence (P43630 other isoform, or with tags, fused parts or gaps limits assumed): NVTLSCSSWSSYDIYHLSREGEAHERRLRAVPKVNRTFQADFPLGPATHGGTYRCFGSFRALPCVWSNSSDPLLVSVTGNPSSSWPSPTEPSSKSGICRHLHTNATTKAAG
Described as above. The method, then:
as §1, §2, §3

T1 sequence (P43629 22-444 limits assumed): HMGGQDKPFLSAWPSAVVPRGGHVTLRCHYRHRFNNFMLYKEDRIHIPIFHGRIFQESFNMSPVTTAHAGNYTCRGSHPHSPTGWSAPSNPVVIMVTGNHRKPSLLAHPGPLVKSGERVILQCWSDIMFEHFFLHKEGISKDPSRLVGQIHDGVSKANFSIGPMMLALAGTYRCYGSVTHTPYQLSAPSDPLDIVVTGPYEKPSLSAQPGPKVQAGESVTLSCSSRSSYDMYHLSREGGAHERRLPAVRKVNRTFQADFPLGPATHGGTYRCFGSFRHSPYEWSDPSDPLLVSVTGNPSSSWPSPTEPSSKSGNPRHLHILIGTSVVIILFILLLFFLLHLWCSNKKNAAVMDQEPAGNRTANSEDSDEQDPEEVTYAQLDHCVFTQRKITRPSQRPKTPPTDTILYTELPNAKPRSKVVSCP
T2 sequence (P43629 other isoform, or with tags, fused parts or gaps limits assumed): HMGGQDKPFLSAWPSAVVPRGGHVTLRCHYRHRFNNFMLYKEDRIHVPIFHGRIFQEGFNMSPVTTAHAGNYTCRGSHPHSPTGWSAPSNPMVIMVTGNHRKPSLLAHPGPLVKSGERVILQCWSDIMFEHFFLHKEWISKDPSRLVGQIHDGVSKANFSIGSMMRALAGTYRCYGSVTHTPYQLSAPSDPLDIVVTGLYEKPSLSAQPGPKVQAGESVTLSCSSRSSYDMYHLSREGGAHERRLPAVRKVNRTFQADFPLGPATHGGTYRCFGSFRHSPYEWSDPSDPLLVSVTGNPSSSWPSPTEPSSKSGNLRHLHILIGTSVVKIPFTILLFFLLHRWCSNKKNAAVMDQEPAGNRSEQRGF

B1: AZ158 (murine monoclonal antibody) (antibody, mouse IgG2b, V domains shown)
VH: QVQLKESGPGLVAPSQSLSITCTVSGFSLTSFGVHWVRQPPGKGLEWLGVIWAGGSTNYNSALMSRLSISKDNSKSQVFLKMNSLQNDDTAMYYCARGNSNHYVSSFYYFDYWGQGTTLTVSS
VL: DIQMTQSPSSLSASLGGKVTITCKASQDINKYIAWYQHKPGKGPRLLIHYTSTLQPGIPSRFSGSGSGRDYSFSISNLEPEDITTYYCLQYDNLWTFGGGTKLEIK
notes: also called mAb AZ158; AZ158-PE
As for B1, the binding result in experiment [1] and in experiment [2] was “binds” in each case.

B2: chAZ158 (chimeric AZ158, human IgG1-kappa, with the MKV6-derived kappa chain) (antibody, V domains shown)
VH: QVQLKESGPGLVAPSQSLSITCTVSGFSLTSFGVHWVRQPPGKGLEWLGVIWAGGSTNYNSALMSRLSISKDNSKSQVFLKMNSLQNDDTAMYYCARGNSNHYVSSFYYFDYWGQGTTLTVSS
VL: DIQMTQSPSSLSASLGGKVTITCKASQDINKYIAWYQHKPGKGPRLLIHYTSTLQPGIPSRFSGSGSGRDYSFSISNLEPEDITTYYCLQYDNLWTFGGGTKLEIKR
notes: also called chiAZ158; AZ158 chimeric antibody
Turning to B2, the values for the binding result in experiment [3], in experiment [4] and in experiment [5] were “binds”, “no binding (tested: 5 µg/ml)” and “no binding (tested: 5 µg/ml)”, respectively.
